These results are taken from patent publication US20130158238A1 (THERACLONE SCIENCES, published 2013).

The target in assay [1] is M2e peptide … (23mer synthetic peptide of M2 derived from A/Fort Worth/1/50) (Influenza A virus A/Fort Worth/1/50 (H1N1)). Put plainly: ELISA, peptide coated at 1 µg/ml. (In general: ELISA stands for enzyme-linked immunosorbent assay.)
For assay [2] the target is unchanged. Briefly: ELISA, peptide 2 µg/mL, mAb 5 µg/mL.
In another assay the target is M2e. Briefly: ELISA, peptide 2 µg/mL, mAb 5 µg/mL.
In assay [3] the target is M2 protein of A/Puerto Rico/8/34 (H1N1), on cells (Influenza A virus A/Puerto Rico/8/34 (H1N1)) (UniProt P06821). Put plainly: flow cytometry on MDCK cells infected with A/Puerto Rico/8/34. (Flow cytometry measures light scatter and fluorescence of single cells or particles in a stream.)
The next assay addresses M15. Briefly: ELISA, peptide 2 µg/mL, mAb 5 µg/mL.
Another assay concerns the target M16. Put plainly: ELISA, peptide 2 µg/mL, mAb 5 µg/mL.
For assay [4], the target named is M2e peptide … (23mer synthetic peptide of M2 derived from A/Fort Worth/1/50) (Influenza A virus A/Fort Worth/1/50 (H1N1)). Put plainly: ELISA, peptide 2 µg/mL, mAb 5 µg/mL. This is another data set of the same source.
For another assay, the target named is NM15. Briefly: ELISA, peptide 2 µg/mL, mAb 5 µg/mL.
A further assay concerns the target NM17. Put plainly: ELISA, peptide 2 µg/mL, mAb 5 µg/mL.
In a further assay the target is T1, A.Hong Kong.1144.99.H3N2.
T1 M2: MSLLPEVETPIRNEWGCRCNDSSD
Put plainly: FACS, transfected HEK293 [D00006 FIG. 3C-1].

A further assay addresses T2, A.Hong Kong.1180.99 H3N2.
T2 M2: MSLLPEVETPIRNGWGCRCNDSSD
Briefly: FACS, transfected HEK293 [D00006 FIG. 3C-1].

The next assay concerns the target T3, A.Caracas.1.71.H3N2.
T3 M2: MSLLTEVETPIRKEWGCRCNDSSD
Briefly: FACS, transfected HEK293, mAb 1 µg/ml [D00006 FIG. 3C-1].

The target of another assay is T4, A.Hong Kong.1.68.H3N2.
T4 M2: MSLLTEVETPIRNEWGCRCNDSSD
The assay is described as above.

The target in assay [5] is T5, A.X-31 Vaccine strain H3N2.
T5 M2: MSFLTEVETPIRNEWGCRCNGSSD
Described as above.

Read-outs that look alike come from different tables or passages of the source.

The term EC50 denotes the concentration at which the effect is half-maximal. Usually EC50 (read off the curve) stands for the concentration giving half of the maximal effect. A higher EC50 (read off the curve) goes with lower potency in that assay. On to “14C2 (chimeric mouse V-region/human IgG1 kappa 14C2 antibody)”, for which, in assay [1], the EC50 was 0.01 µg/mL. Moreover, the binding activity (ELISA A450) was determined as 3.85 in [2] and 3.98 in the assay with M2e. The molecule further came in with an EC50 (read off the curve) in assay [3] of 300 ng/mL.

B1: 23K12 (antibody, V domains shown)
VH: EVQLVESGGGLVQPGGSLRISCAASGFTVSSNYMSWVRQAPGKGLEWVSVIYSGGSTYYADSVKGRFSFSRDNSKNTVFLQMNSLRAEDTAVYYCARCLSRMRGYGLDVWGQGTTVTVS
VL: DIQMTQSPSSLSASVGDRVTITCRTSQSISSYLNWYQQKPGKAPKLLIYAASSLQSGVPSRFSGSGSGTDFTLTISGLQPEDFATYYCQQSYSMPAFGQGTKLEIK
B1: the binding activity (ELISA A450) in the assay with M15 came out at 0.21; with M16, 0.21; in assay [4] it was 0.22; in the assay with NM15 it was 0.3; in the assay with NM17, 0.58. In addition, the binding result with A.Hong Kong.1144.99.H3N2 is “no binding (tested: 1 µg/ml)”; with A.Hong Kong.1180.99 H3N2 it was “no binding (tested: 1 µg/ml)”; in the assay with A.Caracas.1.71.H3N2 it was “binds”; in the assay with A.Hong Kong.1.68.H3N2, “binds”; in assay [5], “binds”.

B2: 8i10 (antibody, V domains shown)
VH: QVQLQESGPGLVKPSETLSLTCTVSGSSISNYYWSWIRQSPGKGLEWIGFIYYGGNTKYNPSLKSRVTISQDTSKSQVSLTMSSVTAAESAVYFCARASCSGGYCILDYWGQGTLVTVS
VL: DIQMTQSPSSLSASVGDRVTITCRASQNIYKYLNWYQQRPGKAPKGLISAASGLQSGVPSRFSGSGSGTDFTLTITSLQPEDFATYYCQQSYSPPLTFGGGTRVEIK
Regarding B2, the binding result (in the assay with A.Caracas.1.71.H3N2; in assay [5]) was “binds” each time.
